Test results taken from patent US12611470B2, “Chromatin-opening element for stable long term gene expression” (CZ Biohub SF, LLC, priority 2019, dated 2026).

Test system: P19 cells
Experiment: Lentiviral transduction silencing experiment, UCOE linked to CMV, EF1α, RSV or PGK promoter driving GFP
Type: cell-based, mouse
Settings: for anti-silencing performance across all four tested promoters: CMV, EF1α, RSV, PGK promoters; for GFP positive cells / expression compared to the negative control: final timepoint
Description: The graphs show the raw data of measured percent GFP positive cells (% GFP+) for each construct over time. Transduced populations were sorted into triplicate wells using FACS at day 0 (5 days after lentiviral transductions) to begin the study at 100% GFP positive cells. Expression is lost quickly within the first 10 days, and then stabilizes around day 15. Data is reported as mean±SD from biological triplicates. Two positive UCOE controls (A2UCOE, 3′UCOE) and a negative control (no insulator region) were used.
Percent GFP positive cells at the final timepoint (day 26 for CMV and RSV, day 27 for PGK and EF1α) of the lentivirus silencing experiment across the four tested promoters is plotted. P19 cells were FACS-sorted five days after transduction (day 0) and then assayed over a 26 or 27-day time period thereafter. Data is reported as mean±SD from three biological replicates.
Two plasmids (pCS3800: encoding HIV-1 Gag; pCS380: encoding VSVg envelope protein) were used with varying versions of the donor plasmid pCS3799. HEK293T cells were plated at 5×10^6 cells in a 10 cm dish. Twenty-four hours after plating, the three plasmids (10 μg donor, 8 μg pCS3800, 10 μg pCS3801) were co-transfected together using a calcium phosphate protocol (Zufferey, R. T. and Trono, D. (2001) Current Protocols in Human Genetics, 26 (1), 12.10.1-12.10.12; DOI: 10.1002/0471142905.hg1210s26 (55)). The total DNA was brought to 500 μL in water, to which 500 μL of 2×HEPES-buffered saline, pH7.0 (Alfa Aesar) was added and mixed. One-tenth of the total volume (100 μL) of 2.5 M calcium chloride (Sigma-Aldrich) was then added to the mixture, followed by a 20-minute incubation. The mixture was then added to the plate in a dropwise manner. Media was replaced six hours later, and the supernatant was collected at 48 hr after the transfection, filtered through 0.4 μm filter, and frozen at −80° C. in 1 mL aliquots. Lentiviral aliquots were thawed in a 37° C. bead bath before transductions.
P19 cells were plated at 20-30,000 cells/well in 12-well plates one day before transduction. Twenty-four hours after plating, cells were transduced at varying dilutions of the lentiviral stock (ranging from 1:2 to 1:100) in DMEM+10% FBS with 8 μg/mL polybrene (Santa Cruz Biotechnologies). Media was refreshed on P19 cells 24 hours after transduction, and cells were passaged and assayed through a MACSQuant® VYB flow cytometer (Miltenyi Biotec) 48 h after transduction. MOI was determined by reporter expression at this timepoint using the following formula: MOI=ln (1/1-p) where p is the % of cells that are GFP positive at 48 hours post-transduction (Chen, S. et al. (2015) Cell, 160, 1246-1260 (56)).
Cells were FACS-sorted on the BD Influx™ cell sorter at the Stanford FACS Facility using the 488-nm laser and 525/40 filter to assay GFP expression. After gating for singlets and viability, GFP+ gate was drawn to be <0.1% GFP positive in non-transduced P19 cells. GFP+ gates were re-drawn for each promoter set to avoid the ˜10% highest and lowest expressing cells within the GFP+ gate, but the same gate was used for every experimental condition under the same promoter. Triplicate wells of each population (12-15,000 cells/well in a 24-well plate) were collected.
Fluorescence data throughout silencing experiments was obtained using a MACSQuant® VYB flow cytometer (Miltenyi Biotec). EGFP was measured through the 488-nm laser and 525/50 nm band pass filter. Flow cytometry data was analyzed using the FlowJo™ single cell flow cytometry analysis software (Tree Star). After being gated for singlets and viability, GFP+ gates in FlowJo were drawn such that a non-transfected or non-transduced P19 cell population was at 1% GFP+. Median values reported are of cells within the GFP+ gate, both % GFP positive and median are reported with the standard deviation of biological replicates. […]

[1] = Ef1α promoter, day 27 after FACS sort to 100% GFP+

B1: Candidate 6-3: Truncated SRF-UCOE variant having a 241 base pair 3′ end deletion, SEQ ID NO:4 (nucleic acid)
DNA: GCACACGACCACAATTCCACTGAAAGCATTTTAATACGGAACTTGTCACTCCCAGGGAGCCTCCGCTCAGCCGGCAGTTGGTTCATTTCAATCCCCACGACAACCCTTCAAAGTGCAGGGCAGACAGCAGGTGGCTCTGCCCAGGCGCCTGGATCACAGCCCGGCCTGCAGCCCTCACCTGGGCGCGGGGAGACCCTGAGGACGCTCCTCCAGGCGGCGCTGGCCGGGGCCTGCGGACACGGACGGGCGGGCTGAGCTCCGGGACCCCTCCCCGCGCCCCGCACCCCGCACCCCGCACCCCGCACCCCGCACCCGGCGCTCACCCGTCCCAGCCCCGCCGCCCGCAGCCCCAGCTGCAACGCAGCCACCGCCGCCATCGCACCCGGCCCCGCGGGCGCTTCCGGGACGCAGGAGGCATCTGCATCCGGGGCGCCGCTGAGTCCCGCCCAGAGCCCCGCCCCCGGCTCCAGGTTCTGCGAGCGGCTTCCGCCGGGCTGCTCCGCGGGCGCGTCGGCCATGAGCGAGTTGCCGGGCGACGTGCGGGCGTTTCTGCGGGAGCACCCGAGCCTGCGGCTCCAGACGGACGCCCGCAAGGTTCGCAGCGCGGGAGGGGAACGGAGTGGCGGAGAAGGGCGCAGTTGGGATGAGGGGCTGAGGGGAGGGCAGGGGAGAGGAGAGGGCAGGGGAGAGGGGAGAGGGGAGAGCAGGAGAGAGGGGAAGGCAGGGGAGAGGGCGCGGCGGGATCAGGGGAGGAGAGGGAA
For B1, the “% GFP+ cells at final timepoint” value (CMV promoter, day 26) was 39%, the “improvement over the negative control” value (CMV promoter, day 26) was 3 fold and the “anti-silencing performance across all four tested promoters” value was “most consistent activity”. The “% GFP+ cells, representative example (one biological replicate)” value (from here on “% GFP+ cells … (one biological replicate)”) (EF1a promoter, day 27) was 69%, the “% GFP+ cells at final timepoint” value [1] was “greater than 65%” and the “GFP positive cells / expression compared to the negative control” value (Ef1α promoter) was “more than four times”. The “% GFP+ cells at final timepoint” value (PGK promoter, day 27) was 49%, the “% GFP+ cells … (one biological replicate)” value (PGK promoter, day 27) was 47.8% and the “% GFP+ cells at final timepoint” value (RSV promoter, day 26) was 66%.

B2: Candidate 6-1: Truncated SRF-UCOE variant having a 106 base pair 5′ end deletion, SEQ ID NO:2 (nucleic acid)
DNA: TTCAAAGTGCAGGGCAGACAGCAGGTGGCTCTGCCCAGGCGCCTGGATCACAGCCCGGCCTGCAGCCCTCACCTGGGCGCGGGGAGACCCTGAGGACGCTCCTCCAGGCGGCGCTGGCCGGGGCCTGCGGACACGGACGGGCGGGCTGAGCTCCGGGACCCCTCCCCGCGCCCCGCACCCCGCACCCCGCACCCCGCACCCCGCACCCGGCGCTCACCCGTCCCAGCCCCGCCGCCCGCAGCCCCAGCTGCAACGCAGCCACCGCCGCCATCGCACCCGGCCCCGCGGGCGCTTCCGGGACGCAGGAGGCATCTGCATCCGGGGCGCCGCTGAGTCCCGCCCAGAGCCCCGCCCCCGGCTCCAGGTTCTGCGAGCGGCTTCCGCCGGGCTGCTCCGCGGGCGCGTCGGCCATGAGCGAGTTGCCGGGCGACGTGCGGGCGTTTCTGCGGGAGCACCCGAGCCTGCGGCTCCAGACGGACGCCCGCAAGGTTCGCAGCGCGGGAGGGGAACGGAGTGGCGGAGAAGGGCGCAGTTGGGATGAGGGGCTGAGGGGAGGGCAGGGGAGAGGAGAGGGCAGGGGAGAGGGGAGAGGGGAGAGCAGGAGAGAGGGGAAGGCAGGGGAGAGGGCGCGGCGGGATCAGGGGAGGAGAGGGAAGGGGGCGCGGCAGGAGGGGGCACCAGGGAGCGGAGCCCTGGCCCTCCTGACGTCCTGCCCGCCCACGCGTCCGCAGGTGAGGTGCATCCTGACAGGTCACGAGCTGCCCTGCCGCCTGCCGGAGCTCCAGGTCTACACCCGCGGCAAAAAGTACCAGCGGCTGGTCCGCGCCTCCCCGGCCTTCGACTATGCAGAGTTCGAGCCGCACATCGTGCCCAGCACCAAGAACCCGTAGGTGGTC
With B2 the “% GFP+ cells at final timepoint” value (CMV promoter, day 26) was 39%, the “improvement over the negative control” value (CMV promoter, day 26) was 3 fold and the “GFP positive cells / expression compared to the negative control” value (Ef1α promoter) was 3.6 times. For the same molecule, the “% GFP+ cells at final timepoint” value (PGK promoter, day 27) was 31%, the “expressing cells / improvement over the negative control” value (PGK promoter, day 27) was 5 fold and the “% GFP+ cells at final timepoint” value (RSV promoter, day 26) was 68%.

B3: Candidate 6-2: Truncated SRF-UCOE variant having a 478 base pair 5′ end deletion, SEQ ID NO:3 (nucleic acid)
DNA: AGCGGCTTCCGCCGGGCTGCTCCGCGGGCGCGTCGGCCATGAGCGAGTTGCCGGGCGACGTGCGGGCGTTTCTGCGGGAGCACCCGAGCCTGCGGCTCCAGACGGACGCCCGCAAGGTTCGCAGCGCGGGAGGGGAACGGAGTGGCGGAGAAGGGCGCAGTTGGGATGAGGGGCTGAGGGGAGGGCAGGGGAGAGGAGAGGGCAGGGGAGAGGGGAGAGGGGAGAGCAGGAGAGAGGGGAAGGCAGGGGAGAGGGCGCGGCGGGATCAGGGGAGGAGAGGGAAGGGGGCGCGGCAGGAGGGGGCACCAGGGAGCGGAGCCCTGGCCCTCCTGACGTCCTGCCCGCCCACGCGTCCGCAGGTGAGGTGCATCCTGACAGGTCACGAGCTGCCCTGCCGCCTGCCGGAGCTCCAGGTCTACACCCGCGGCAAAAAGTACCAGCGGCTGGTCCGCGCCTCCCCGGCCTTCGACTATGCAGAGTTCGAGCCGCACATCGTGCCCAGCACCAAGAACCCGTAGGTGGTC
With B3 the “efficacy in resisting silencing” value (CMV promoter) was “best-performing population”, the “% GFP+ cells at final timepoint” value (CMV promoter, day 26) was 55% and the “% GFP+ cells … (one biological replicate)” value (CMV promoter, day 26) was 59.2%. The “improvement over A2UCOE” value (CMV promoter, day 26) was 1.4 fold, the “improvement over the negative control” value (CMV promoter, day 26) was 4.4 fold and the “anti-silencing performance across all four tested promoters” value was “failed to outperform the negative control in 3 of the 4 promoters tested”. For the same molecule, the “efficacy in resisting silencing” value (Ef1α promoter) was “ineffective”, the “% GFP+ cells at final timepoint” value [1] was 11% and the “efficacy in resisting silencing” value (PGK promoter) was “substantially less effective than the other Candidate 6 sequences”. For the same molecule, the “% GFP+ cells at final timepoint” value (PGK promoter, day 27) was 17% and the “efficacy in resisting silencing” value (RSV promoter) was “ineffective”.
